# Laboratory results from paper PMC4896102, “Biosynthesis of the polymeric gel-forming mucin MUC5B” (American Journal of Physiology - Lung Cellular and …, 2016).
# Target: the molecule itself
# Assay: SEC-MALS; SEC-MALLS of purified CT5B, performed as described in ref. 18; light scattering and refractive index
protein,measurement,value
"recombinant MUC5B COOH-terminus (CT5B; D4-B-C-CK) (domain or fragment, human, UniProt Q9HC84 4955-5762, looked up, N-glycans (removed by PNGase F; positions not stated), Present as a mixture of monomers and disulfide-stabilised dimers; the proportions varied between preparations; also called MUC5B COOH-terminal construct; COOH-terminal region of MUC5B) GEVIYNKTDRAGCHFYAVCNQHCDIDRFQGACPTSPPPVSSAPLSSPSPAPGCDNAIPLRQVNETWTLENCTVARCVGDNRVVLLDPKPVANVTCVNKHLPIKVSDPSQPCDFHYECECICSMWGGSHYSTFDGTSYTFRGNCTYVLMREIHARFGNLSLYLDNHYCTASATAAAARCPRALSIHYKSMDIVLTVTMVHGKEEGLILFDQIPVSSGFSKNGVLVSVLGTTTMRVDIPALGVSVTFNGQVFQARLPYSLFHNNTEGQCGTCTNNQRDDCLQRDGTTAASCKDMAKTWLVPDSRKDGCWAPTGTPPTASPAAPVSSTPTPTPCPPQPLCDLMLSQVFAECHNLVPPGPFFNACISDHCRGRLEVPCQSLEAYAELCRARGVCSDWRGATGGLCDLTCPPTKVYKPCGPIQPATCNSRNQSPQLEGMAEGCFCPEDQILFNAHMGICVQACPCVGPDGFPKFPGERWVSNCQSCVCDEGSVSVQCKPLPCDAQGQPPPCNRPGFVTVTRPRAENPCCPETVCVCNTTTCPQSLPVCPPGQESICTQEEGDCCPTFRCRPQLCSYNGTFYGVGATFPGALPCHMCTCLSGDTQDPTVQCQEDACNNTTCPQGFEYKRVAGQCCGECVQTACLTPDGQPVQLNETWVNSHVDNCTVYLCEAEGGVHLLTPQPASCPDVSSCRGSLRKTGCCYSCEEDSCQVRINTTILWHQGCETEVNITFCEGSCPGASKYSAEAQAMQHQCTCCQERRVHEETVPLHCPNGSAILHTYTHVDECGCTPFCVPAPMAPPHTRGFPAQEATAV",stoichiometry N,2
